Experimental data as given in patent publication US6525022B1, “Receptor specific atrial natriuretic peptides” (Genentech, Inc., priority 1993, dated 2003).
Read-outs that look alike come from different tables or passages of the source. Bridges are numbered along the chain shown (N, C = ends). Where no end group is shown, it is not given here.

T1: human neutral endopeptidase 24.11 (human), P08473
T1 chain: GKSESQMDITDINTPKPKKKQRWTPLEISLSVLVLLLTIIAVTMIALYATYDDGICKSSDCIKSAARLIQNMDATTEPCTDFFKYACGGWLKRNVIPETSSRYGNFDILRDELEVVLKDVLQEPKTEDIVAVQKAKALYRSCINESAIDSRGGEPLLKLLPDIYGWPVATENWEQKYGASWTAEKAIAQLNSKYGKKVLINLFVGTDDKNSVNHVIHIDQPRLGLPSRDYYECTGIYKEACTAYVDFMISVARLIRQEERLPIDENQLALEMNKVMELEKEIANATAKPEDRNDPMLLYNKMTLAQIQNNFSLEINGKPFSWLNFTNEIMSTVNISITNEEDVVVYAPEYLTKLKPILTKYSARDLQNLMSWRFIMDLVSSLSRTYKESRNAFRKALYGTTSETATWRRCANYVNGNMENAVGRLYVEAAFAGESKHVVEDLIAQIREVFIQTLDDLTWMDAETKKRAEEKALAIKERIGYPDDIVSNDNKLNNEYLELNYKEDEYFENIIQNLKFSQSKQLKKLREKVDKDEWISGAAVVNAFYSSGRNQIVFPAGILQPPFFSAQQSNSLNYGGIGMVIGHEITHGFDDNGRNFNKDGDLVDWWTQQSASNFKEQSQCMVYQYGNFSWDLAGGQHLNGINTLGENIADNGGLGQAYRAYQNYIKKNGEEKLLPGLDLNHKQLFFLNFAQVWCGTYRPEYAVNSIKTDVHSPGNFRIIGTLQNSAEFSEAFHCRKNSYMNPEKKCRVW

T2: human natriuretic peptide clearance receptor-C (human), P17342
T2 chain: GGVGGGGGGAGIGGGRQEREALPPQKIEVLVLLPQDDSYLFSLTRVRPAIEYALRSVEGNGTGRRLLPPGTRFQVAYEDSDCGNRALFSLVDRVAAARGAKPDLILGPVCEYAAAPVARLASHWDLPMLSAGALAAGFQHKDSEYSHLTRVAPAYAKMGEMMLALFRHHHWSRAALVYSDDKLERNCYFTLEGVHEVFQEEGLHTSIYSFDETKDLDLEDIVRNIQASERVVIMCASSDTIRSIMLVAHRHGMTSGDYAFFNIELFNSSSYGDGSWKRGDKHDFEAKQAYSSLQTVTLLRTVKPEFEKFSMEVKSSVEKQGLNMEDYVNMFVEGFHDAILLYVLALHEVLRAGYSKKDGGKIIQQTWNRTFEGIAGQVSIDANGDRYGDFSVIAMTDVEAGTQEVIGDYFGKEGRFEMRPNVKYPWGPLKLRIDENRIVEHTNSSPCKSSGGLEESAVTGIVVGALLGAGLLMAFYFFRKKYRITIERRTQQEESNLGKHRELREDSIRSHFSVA

T3: human natriuretic peptide receptor-A (human), P16066
T3 chain: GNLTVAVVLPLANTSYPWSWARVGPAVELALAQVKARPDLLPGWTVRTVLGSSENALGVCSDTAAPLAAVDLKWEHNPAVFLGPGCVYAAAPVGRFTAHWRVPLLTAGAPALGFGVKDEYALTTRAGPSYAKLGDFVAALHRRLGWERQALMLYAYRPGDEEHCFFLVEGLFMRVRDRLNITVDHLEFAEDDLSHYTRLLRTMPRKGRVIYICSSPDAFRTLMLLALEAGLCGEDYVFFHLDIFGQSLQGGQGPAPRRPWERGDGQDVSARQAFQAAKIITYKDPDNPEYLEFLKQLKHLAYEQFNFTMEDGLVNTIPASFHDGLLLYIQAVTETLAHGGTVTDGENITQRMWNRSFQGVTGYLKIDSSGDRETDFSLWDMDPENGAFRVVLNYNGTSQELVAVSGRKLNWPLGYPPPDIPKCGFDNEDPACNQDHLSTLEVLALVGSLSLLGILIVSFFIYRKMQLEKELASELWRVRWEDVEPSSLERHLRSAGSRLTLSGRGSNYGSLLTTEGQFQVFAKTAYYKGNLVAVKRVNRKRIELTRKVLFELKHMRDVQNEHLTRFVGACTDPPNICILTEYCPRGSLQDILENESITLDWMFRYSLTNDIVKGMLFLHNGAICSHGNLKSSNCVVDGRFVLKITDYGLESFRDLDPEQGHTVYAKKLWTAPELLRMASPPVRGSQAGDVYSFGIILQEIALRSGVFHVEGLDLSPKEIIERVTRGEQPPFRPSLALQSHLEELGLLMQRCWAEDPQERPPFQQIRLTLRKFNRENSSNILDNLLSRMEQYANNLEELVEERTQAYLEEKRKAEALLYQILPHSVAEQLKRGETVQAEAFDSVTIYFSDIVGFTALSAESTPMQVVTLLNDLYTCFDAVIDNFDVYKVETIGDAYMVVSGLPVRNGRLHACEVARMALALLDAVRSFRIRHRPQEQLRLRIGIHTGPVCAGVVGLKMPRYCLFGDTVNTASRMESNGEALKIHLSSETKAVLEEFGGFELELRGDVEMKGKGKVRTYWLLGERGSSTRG

T4: human natriuretic peptide clearance receptor-C (human, UniProt P17342 27-541)
T4 construct: whole, on cells; also called hNPR-C; human NPR-C
T4 sequence (looked up): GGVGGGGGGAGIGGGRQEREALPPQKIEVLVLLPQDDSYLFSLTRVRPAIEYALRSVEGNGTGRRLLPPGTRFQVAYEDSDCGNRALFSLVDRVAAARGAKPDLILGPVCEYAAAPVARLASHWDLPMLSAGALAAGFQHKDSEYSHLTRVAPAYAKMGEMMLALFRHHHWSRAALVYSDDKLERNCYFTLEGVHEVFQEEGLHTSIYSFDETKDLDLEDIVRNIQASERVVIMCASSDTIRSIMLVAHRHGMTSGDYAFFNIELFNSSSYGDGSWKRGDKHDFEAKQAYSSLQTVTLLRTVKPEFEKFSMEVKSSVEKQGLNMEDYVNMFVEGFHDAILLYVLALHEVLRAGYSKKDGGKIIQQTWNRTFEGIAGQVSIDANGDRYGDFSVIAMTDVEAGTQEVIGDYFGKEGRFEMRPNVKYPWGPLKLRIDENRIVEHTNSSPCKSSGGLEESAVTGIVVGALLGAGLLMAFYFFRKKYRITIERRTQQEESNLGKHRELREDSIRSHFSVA

T5: human natriuretic peptide receptor-A (human, UniProt P16066 33-1061)
T5 construct: whole, on cells; also called hNPR-A; human NPR-A
T5 sequence (looked up): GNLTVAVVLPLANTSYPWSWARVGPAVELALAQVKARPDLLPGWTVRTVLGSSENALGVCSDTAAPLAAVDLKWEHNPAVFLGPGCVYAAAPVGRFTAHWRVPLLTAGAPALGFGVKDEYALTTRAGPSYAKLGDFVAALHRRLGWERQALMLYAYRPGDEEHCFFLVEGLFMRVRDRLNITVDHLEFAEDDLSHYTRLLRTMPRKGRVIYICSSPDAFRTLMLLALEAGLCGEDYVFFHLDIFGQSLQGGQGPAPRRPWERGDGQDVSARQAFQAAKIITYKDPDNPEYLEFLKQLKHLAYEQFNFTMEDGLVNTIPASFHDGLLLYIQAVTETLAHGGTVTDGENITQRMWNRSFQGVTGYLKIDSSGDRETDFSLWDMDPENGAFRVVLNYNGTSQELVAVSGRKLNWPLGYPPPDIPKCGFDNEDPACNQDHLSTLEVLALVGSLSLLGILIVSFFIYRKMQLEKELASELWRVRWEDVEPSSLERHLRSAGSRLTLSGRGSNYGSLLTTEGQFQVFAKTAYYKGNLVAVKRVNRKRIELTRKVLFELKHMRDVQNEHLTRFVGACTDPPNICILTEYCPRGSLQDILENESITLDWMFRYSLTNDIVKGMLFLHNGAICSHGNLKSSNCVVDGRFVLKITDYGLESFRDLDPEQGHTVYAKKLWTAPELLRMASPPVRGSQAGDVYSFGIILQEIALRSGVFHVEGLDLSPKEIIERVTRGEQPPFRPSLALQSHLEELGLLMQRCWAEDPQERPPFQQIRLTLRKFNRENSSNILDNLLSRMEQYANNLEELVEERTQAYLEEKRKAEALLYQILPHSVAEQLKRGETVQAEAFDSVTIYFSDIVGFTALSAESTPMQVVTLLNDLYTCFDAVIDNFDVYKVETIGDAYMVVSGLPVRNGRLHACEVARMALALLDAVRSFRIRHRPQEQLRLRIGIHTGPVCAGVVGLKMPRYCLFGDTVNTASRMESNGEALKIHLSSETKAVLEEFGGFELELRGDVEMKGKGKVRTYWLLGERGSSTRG


Key:
[1] = target: T1, human neutral endopeptidase 24.11 …; assay: cell-based or functional assay
[2] = target: T2, human natriuretic peptide clearance …; assay: competition binding, Table I; tracer and receptor format not given
[3] = target: T3, human natriuretic peptide receptor-A …; assay: competition binding vs 125I-rat ANP, membranes; settings: chains peptide; modification not given
[4] = target: T2, human natriuretic peptide clearance …; assay: competition binding, membranes; settings: chains peptide; modification not given
[5] = target: T6, human neutral endopeptidase 24.11 (human, UniProt P08473 2-750, limits assumed); assay: cell-based or functional assay
[6] = target: T4, human natriuretic peptide clearance …; assay: competition binding, Table I; tracer and receptor format not given
[7] = target: T6, human neutral endopeptidase 24.11; assay: cell-based or functional assay; remark: listed apart in the source
[8] = target: T5, human natriuretic peptide receptor-A; assay: competition binding, Table I; tracer and receptor format not given

| Binder | Half-Life [5] | IC50 [6] | IC50 [8] | further results |
| --- | --- | --- | --- | --- |
| SLRRSSCFTGSIDRIRAQSGLGCNSFRY (modifications not checked) [ANF 27] | – | – | – | Half-Life [1]: 5.57 h; IC50 [2]: 1000 nM |
| SLRRSSCFGGRIDRIREASGLGCNSFRY [ANF 99] | – | – | – | IC50 [3]: 0.145 nM; IC50 [4]: 121 nM |
| SLRRSSCFGGRIDRIRAQSGLGCNSFRY (disulfide 7-23, Synthetic; Cys7-Cys23 disulfide; also called hANF(1-28) M12I, G16R) [ANF 24] | 10 h | 5.64 nM | – | – |
| SLRRSSCFGGRIDSIRAQSGLGCNSFRY (disulfide 7-23, also called hANF(1-28) M12I, R14S, G16R) [ANF 25] | – | 3.31 nM | 0.056 nM | Half-Life [7]: 3.32 h |
| SLRRSSCFTGSMDRIGAQSGLGCNSFRY (disulfide 7-23, Cys7-Cys23 disulfide; also called hANF(1-28) G9T, R11S) [ANF 50] | 1.55 h | 251 nM | 0.57 nM | – |
